According to publication PMC4337483 (Journal of immunology (Baltimore, Md. : 1950), 2015):

B1: periplakin residues 133-530 (PPL BamH1, purified, His tag) (domain or fragment)
chain: DPQVNWAALVEEKLDKLNNQSFGTDLPLVDHQVEEHNIFHNEVKAIGPHLAKDGDKEQNSELRAKYQKLLAASQARQQHLSSLQDYMQRCTNELYWLDQQAKGRMQYDWSDRNLDYPSRRRQYENFINRNLEAKEERINKLHSEGDQLLAAEHPGRNSIEAHMEAVHADWKEYLNLLICEESHLKYMEDYHQFHEDVKDAQELLRKVDSDLNQKYGPDFKDRYQIELLLRELDDQEKVLDKYEDVVQGLQKRGQQVVPLKYRRETPLKPIPVEALCDFEGEQGLISRGYSYTLQKNNGESWELMDSAGNKLIAPAVCFVIPPTDPEALALADSLGSQYRSVRQKAAGSKRTLQQRYEVLKTENPGDASDLQGRQLLAGLDKVASDLDRQEKAITGILR

Experiments:
[1] = target: BTN3A1 B30.2 domain (BTN3A1 residues 310-513) (Homo sapiens, UniProt O00481); experiment: isothermal titration calorimetry; format: binding
[2] = target: 3A1v2 cytoplasmic tail (protein used in ITC) (human); experiment: ITC
[3] = target: BTN3A1 residues 310-513 (purified, His tag) (human) (UniProt O00481); experiment: ITC

| Molecule | Kd [1] | Kd [2] | Kd [3] | stoichiometry N [3] |
| --- | --- | --- | --- | --- |
| C=C(C)CCO[P@@](=O)(O)OP(=O)(O)O [IPP] | 672 µM |  |  |  |
| B1 |  | 580 nM | 2100 nM | 1 |
